B1: CPEB3 Ribozyme (parent)
chain: UAACAGGGGGCCACAGCAGAAGCGUUCACGUCGCAGCCCCUGUCAGAUUCUGGUGAAUCUGCGAAUUCUGCUGUAUAUCUC

The series covers variants of B1. The series can be described thus: self-cleavage, relative activity (ratio to wild type); higher = more cleavage; in vitro, sequencing. The method, boiled down:
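After error-prone PCR and barcoding, CPEB3 ribozyme mutant libraries were transcribed with T7 RNA polymerase at 37°C for 5 hours, then given 15 min with DNase I before an EDTA stop, and they cleaved during both steps. Reverse transcription with template switching preceded Illumina sequencing. Relative activity divides a variant's cleaved/total read fraction by the unmutated ribozyme's. At least 5 reads were required per variant, and three batches were averaged.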
Regarding U49C C81G, the self-cleavage was 0.51.

Consider U49C C81U, for which the self-cleavage came out at 0.68.

On to U49C C81A, for which the self-cleavage was 0.76.

Take C50A U60A: the self-cleavage was 0.27.

C50A U60C: the self-cleavage worked out at 0.13.

For the variant C50G A56U, the self-cleavage turned out to be 0.45.

For C50U U80C, the self-cleavage stood at 1.07.

For U51A G55U, the self-cleavage was determined as 1.08.

U49G G63A: the self-cleavage is 0.28.

Turning to U49C U72A, the self-cleavage was found to be 0.26.

Consider U49C U72C, for which the self-cleavage was 0.36.

Regarding U49C U72G, the self-cleavage came to 0.26.

For U51C U60C, the self-cleavage was found to be 0.36.

Take U51C U60A: the self-cleavage came out at 0.49.

As to U51C U60G, the self-cleavage was 0.4.

For the variant U49G A75G, the self-cleavage was determined as 0.42.

In the case of C50A U66C, the self-cleavage was found to be 0.3.

As for U49C G70A, the self-cleavage was 0.44.

For U49C G70U, the self-cleavage is 0.2.

With C50A U51C, the self-cleavage is 0.93.

With C50A U51A, the self-cleavage came to 0.84.

As to U51A C79G, the self-cleavage came to 1.17.

As to U51A C79U, the self-cleavage was found to be 1.18.

Regarding C50A A65G, the self-cleavage is 0.31.

Take U51A G63A: the self-cleavage worked out at 1.

U51A G63U: the self-cleavage was found to be 1.15.

Turning to C50G G61A, the self-cleavage worked out at 0.27.

For the variant C50U A75U, the self-cleavage was determined as 1.22.

U51A U78G: the self-cleavage amounted to 1.04.

As to U51A U78A, the self-cleavage is 1.

On to U51A U78C, for which the self-cleavage is 0.83.

With U49C G61C, the self-cleavage stood at 0.33.

U49C G61A: the self-cleavage was determined as 0.19.

On to C50A U74C, for which the self-cleavage was found to be 0.87.

As for U51A U74A, the self-cleavage came to 1.29.

Turning to U51A U74C, the self-cleavage is 1.21.

On to C50A A64C, for which the self-cleavage is 0.43.

For C50A A64G, the self-cleavage was 0.73.

On to U51G U80A, for which the self-cleavage was 1.

As for U51G U80C, the self-cleavage turned out to be 1.11.

On to U49C U51G, for which the self-cleavage is 0.36.

Consider U49C U51C, for which the self-cleavage amounted to 0.38.

With U49C U51A, the self-cleavage amounted to 0.49.

For C50U A65G, the self-cleavage stood at 0.4.

As for G52A G53A, the self-cleavage was 1.13.

Regarding C50U U66C, the self-cleavage came to 0.45.

Turning to C50U U66A, the self-cleavage was 0.22.

Regarding U49C U78C, the self-cleavage came to 0.42.

U49C U78A: the self-cleavage is 0.46.

With U49C U78G, the self-cleavage worked out at 0.39.

U49C U76A: the self-cleavage worked out at 0.49.

Take U49C U76C: the self-cleavage was 0.48.

As for U51A A64C, the self-cleavage is 0.51.

With U51A A64G, the self-cleavage worked out at 0.93.

In the case of U51A A64U, the self-cleavage was 0.46.

In the case of U51A A56U, the self-cleavage is 0.68.

In the case of U51A A56G, the self-cleavage turned out to be 0.5.

On to C50U G61A, for which the self-cleavage came to 0.55.

As for U51C C71U, the self-cleavage worked out at 0.62.

With U51C C71A, the self-cleavage came to 0.53.

Take U51G U72A: the self-cleavage was 0.91.

For the variant U51G U72G, the self-cleavage worked out at 0.57.

On to U51G U72C, for which the self-cleavage was found to be 0.95.

For the variant U51C U67G, the self-cleavage was 0.38.

Consider U51C U67C, for which the self-cleavage came to 0.4.

For the variant U51C U67A, the self-cleavage turned out to be 0.56.

In the case of U51A A57G, the self-cleavage is 0.56.

As for U51A A57U, the self-cleavage was 0.53.

Consider U49G U60C, for which the self-cleavage came to 0.23.

Consider U49G A56G, for which the self-cleavage came out at 0.35.

As for U49G A56U, the self-cleavage stood at 0.65.

In the case of U51C C79A, the self-cleavage is 1.24.

Take U49C U80C: the self-cleavage came out at 0.61.

Consider U49C U80A, for which the self-cleavage is 0.51.

Turning to U49C U80G, the self-cleavage worked out at 0.49.

As for C50G U78C, the self-cleavage amounted to 0.71.

For the variant C50U A56G, the self-cleavage was 0.85.

In the case of C50U A56U, the self-cleavage was determined as 0.82.

As to U49G U80C, the self-cleavage turned out to be 0.48.

With U49G, the self-cleavage was 0.52.

In the case of G52A A57G, the self-cleavage was 0.99.

On to U51C G61A, for which the self-cleavage came to 0.71.

As for U51C G61C, the self-cleavage was found to be 0.25.

C50U G52A: the self-cleavage is 0.99.

Consider U51C C59U, for which the self-cleavage turned out to be 0.68.

Consider U51C C59A, for which the self-cleavage amounted to 0.29.

As for U49G A64G, the self-cleavage is 0.4.

In the case of U51A G52U, the self-cleavage turned out to be 1.16.

For U51A G52A, the self-cleavage was found to be 1.21.

Consider U51A G52C, for which the self-cleavage was 1.09.

Turning to U49G U58C, the self-cleavage is 0.2.

On to U51A U66A, for which the self-cleavage came to 0.51.

Take U51A U66C: the self-cleavage came out at 0.42.

For the variant U51G G70A, the self-cleavage amounted to 0.69.

For U51C U69C, the self-cleavage was found to be 0.6.

Turning to U51C U69A, the self-cleavage came out at 0.7.

With U51C U69G, the self-cleavage came to 0.56.

On to U51A G61A, for which the self-cleavage amounted to 1.01.

As to U49C G63A, the self-cleavage is 0.39.

For the variant U49C G63U, the self-cleavage amounted to 0.35.

On to U51A A65G, for which the self-cleavage was 0.48.

For the variant U51A A65U, the self-cleavage is 0.21.

U51A C62G: the self-cleavage worked out at 0.23.

For the variant U51A C62A, the self-cleavage was 0.22.

Regarding U51A C62U, the self-cleavage stood at 0.25.

For the variant U49C C62G, the self-cleavage was 0.46.

As for U49C C62U, the self-cleavage stood at 0.33.

As for U49C C62A, the self-cleavage was found to be 0.17.

In the case of U49G A77G, the self-cleavage was determined as 0.39.

For C50U U51A, the self-cleavage was found to be 1.17.

As for C50U U51C, the self-cleavage came to 0.8.

Turning to U51A U80A, the self-cleavage is 1.07.

Consider U51A U80G, for which the self-cleavage worked out at 1.18.

With U51A U80C, the self-cleavage worked out at 1.

As to G52A, the self-cleavage amounted to 1.14.

Consider U51A U67G, for which the self-cleavage turned out to be 0.43.

For the variant U51A U67C, the self-cleavage was 0.4.

For the variant U51A U67A, the self-cleavage worked out at 0.59.

U51C U80A: the self-cleavage is 1.13.

Regarding U51C U80G, the self-cleavage was determined as 1.17.

U51C U80C: the self-cleavage was determined as 1.15.

With C50U A77G, the self-cleavage amounted to 1.11.

U51A C68U: the self-cleavage worked out at 1.04.

With U51A C68A, the self-cleavage is 0.4.

As for C50U U69C, the self-cleavage came out at 0.41.

Turning to U51A U60C, the self-cleavage is 0.59.

For U51A U60A, the self-cleavage is 0.64.

On to U49C C68U, for which the self-cleavage amounted to 0.24.

For U49C C68A, the self-cleavage amounted to 0.15.

As to U51C A57U, the self-cleavage is 0.44.

In the case of U51C A57G, the self-cleavage was determined as 0.91.

Regarding U51C A57C, the self-cleavage turned out to be 0.44.

Turning to U51G U76C, the self-cleavage is 1.17.

On to U51G U76A, for which the self-cleavage was found to be 1.19.

In the case of G52A A65G, the self-cleavage is 0.53.

As for U51C A64U, the self-cleavage turned out to be 0.42.

U51C A64G: the self-cleavage came to 0.81.

C50G A75C: the self-cleavage turned out to be 0.54.

U49G U51C: the self-cleavage amounted to 0.63.

As to U51G A64U, the self-cleavage turned out to be 0.52.

Turning to U51G A64G, the self-cleavage turned out to be 0.85.

In the case of U51C G52C, the self-cleavage worked out at 1.

Turning to U51C G52U, the self-cleavage was determined as 0.94.

U51C G52A: the self-cleavage stood at 1.15.

As to U51A A75U, the self-cleavage is 1.03.

Consider U51A A75G, for which the self-cleavage is 0.86.

In the case of U51G, the self-cleavage came to 0.99.

Consider U51A, for which the self-cleavage is 1.05.

With U51C, the self-cleavage was found to be 1.04.

For the variant C50G A57G, the self-cleavage amounted to 0.51.

In the case of U51G U74A, the self-cleavage stood at 1.14.

Turning to G52A A75G, the self-cleavage is 0.99.

Regarding C50A C71G, the self-cleavage was found to be 0.18.

On to C50A C71U, for which the self-cleavage was 0.55.

Take U51G A77U: the self-cleavage amounted to 1.16.

Take U51G A77G: the self-cleavage came out at 1.1.

Take U51G U67A: the self-cleavage was found to be 0.43.

Take U51G U67C: the self-cleavage was found to be 0.17.

Consider U49G G55U, for which the self-cleavage is 0.88.

With C50A U69A, the self-cleavage came to 0.42.

With C50A U69C, the self-cleavage worked out at 0.49.

As to U51C C81A, the self-cleavage came to 1.18.

Consider U51C C81U, for which the self-cleavage is 1.15.

On to G52A A77U, for which the self-cleavage worked out at 0.98.

Take C50A U80C: the self-cleavage worked out at 1.05.

With C50A U80A, the self-cleavage is 0.83.

U49C C79U: the self-cleavage was 0.76.

The record behind these values is the RNAGym collection of RNA variant scans (doi:10.1093/nar/gkz1192).
